Target: T1, human ubiquitin conjugating enzyme E2 protein Ubc-7 (human, UniProt P60604 1-165, limits assumed)
T1 construct: also called Homo sapiens ubiquitin-conjugating enzyme E2G 2; UCE E2 Ubc7
T1 sequence: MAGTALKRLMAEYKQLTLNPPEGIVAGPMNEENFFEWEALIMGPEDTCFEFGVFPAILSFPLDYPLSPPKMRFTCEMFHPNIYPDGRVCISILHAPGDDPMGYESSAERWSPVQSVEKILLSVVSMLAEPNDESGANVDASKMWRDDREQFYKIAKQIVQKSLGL
Experiment: crystal structure of the gp78-Ubc7 fusion protein (SEQ ID No. 12) solved to 2.2 Å

B1: gp78 E3 RING motif with flanking sequence (amino acid residues 322 to 393 of the full-length gp78 E3 protein) (other)
chain: MEARFAVATPEELAVNNDDCAICWDSMQAARKLPCGHLFHNSCLRSWLEQDTSCPTCRMSLNIADNNRVREE
notes: also called gp78 RING; gp78RING motif
binding result: binds
